Results on 50 sequences are retold here after the domain aggregation screens of Martell et al. (2025).

This series is described as follows: soluble fraction after stress (log2 fold change); higher = more stays soluble; pooled small domains, quantitative proteomics. The following applies: stress: 75 degC.
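Also: 20 min heating vs room temperature control held 20 min.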

With “HMLSLSDIINDVMERLTREKNLTFDELLGEKRERRRIVYTFLALLELIRLKMIKAYQTAAFGVIRIFPR”, the “soluble fraction (log2)” value was -1.4. Turning to “HMLSLTSRQQEIFDLIKGHIKKTGMPPTRSEIALHFGFRSANSAEEHLRALARKGFIELIPGTSRGIKLIE”, the “soluble fraction (log2)” value is -1.87.

Regarding “HMLSPPWYEYHRKVQAMFGRDPEVHIKDLDDLGDGKFSYMILVYNKEKAEAIKAILPQKVEMGNVTIETAI”, the “soluble fraction (log2)” value is -1.87. For the sequence “HMLSRNEWLVMEALWERPSTLMELVRQLGQEPPGWAKSTTATMVRRMEEKGLIRHEAGSKARVYHP”, the “soluble fraction (log2)” value is -1.82. Consider “HMLSSAAAIDRILAGGTAAMNHRQFDAALTSFNTVIEMRPDFAEGWNKRATLYYLIGEYERSIADVERTLA”, for which the “soluble fraction (log2)” value was found to be 0.183. Turning to “HMLSTRERMSSLMAQLQVQQFMPFHRLFTISEGRMGVIVTFLAMMELVKENLIKLIQAQEYGPIHVSLG”, the “soluble fraction (log2)” value stood at 0.467. For the sequence “HMLSVRERMSAILVSLEGERYADFTGLFDPTEGKGGVTVTFLAILELLKESMIDVVQNELYGPIHVRAA”, the “soluble fraction (log2)” value was -1.07.

On to “HMLSVRNRMSDVLKSLDDGEFHRFESLFNLEEGRLGVVVTFLAMLELAKEMLVEIVQNESLGPIYLKSR”, for which the “soluble fraction (log2)” value is 0.041. On to “HMLSVRQRMGELLERLADGQFHRFESLFTVEEGKLGVVVTFLGLLTLAKEQLLDIVQEGPTAPIYVKSLA”, for which the “soluble fraction (log2)” value is -0.569. Consider “HMLSVTLTVLPQQAGERLDAFAAAESTLSRSAAAKLIEDGQITVNGARAAKNYRLRAGDVIEIDEPEPI”, for which the “soluble fraction (log2)” value is -0.0471. On to “HMLTAPMPGTIQQILVTKGQKVRSGQTLMILEAMKMEHKIKAPNSGEIISINYSLGNRVEMGANLIEI”, for which the “soluble fraction (log2)” value is -2.1. The same measure for “HMLTDAAAVKRSVRNLVQYGFYEKPFHPEIGSGVRDLLFENMTPFVANNLSKQIEEIITNYEPRA”: -0.314; for “HMLTDMSKIRKVLKLYGKGNSKLFISTYLSLSRNTVKKYISLFEVSGKTIEEILAKSDSELELLFSG”: -0.981; for “HMLTEREQDTLNFIRQYIDEQGRSPLVSEIAKGLGIKSQGTTHRYIQALVDAGLLERHVGRTRGLHLT”: -0.0653. Under “HMLTGADAEKATAAAQAEFPGGTVLRVETDADGTYEAHVRKADGTEVEVKMDKDFKVTSVEE” stands 0.142; under “HMLTLAVPNSINMRLDKYLSENIDYLSRSKIQGLINDGKVTINGENEKSSYKLNGDESIVIYYEE”, -0.377. With “HMLTPQEIGSRLKLVRQGLQLKQQEVAEIIGTSQLKISKIEQGATVTTPDFLKLLAFYSQSVSLDILF”, the “soluble fraction (log2)” value is -0.546. Under “HMLTRQRKQLLEYLSKHTDEQMTARQIADALTAESISISAVYRNLSALEEEGILKRSIRENTREVYYQYIA” stands -1.57; under “HMLTSIDQMLKLAMPDSDITVSKMNGLILLTGTVKAPEDAAEAERLVQAFSAPPPGQPPVTVVSRLRTA”, -0.402; under “HMLTTMSSQWKPSLDAIEILEKSGIAYSFIEDAIPEFVLYWRERGISHGAWNTKFVEHIRKQWAKFEAS”, -1.73.

Turning to “HMLTTVAAQRAALHQEEDITKLREIILKLVPFWGLDGGAYADKETSIQLERQYRESFDQAVSAARRSGQA”, the “soluble fraction (log2)” value is -0.335.

With “HMLTWNQLGLITKPVVFLDGTGYYARLFEAFEHMISTGFVKENYRAMMNRATSVEEAVRIASSPAPKVD”, the “soluble fraction (log2)” value is -0.0438. As for “HMLVGGPDTPSKVTVSFDLGSRQAVDELTERAGAAGGRIGDIDDYPFMYQRQFDDPDGYHYSPFWMKP”, the “soluble fraction (log2)” value was -0.177.

As to “HMLVTQSITVPMAMSGIRLDAALAMLFPDHSRNRLKAWLDDGHILVDGAVWAGKQRLEGNEEITATLPEAK”, the “soluble fraction (log2)” value is -0.673.

As for “HMLYDNQLPDWAGQMVKNHGLTISPKALVILVDHIGNDLSRIENEIEKLMLNLGTRKSITEDDVEN”, the “soluble fraction (log2)” value was -1.61. In the case of “HMLYETLKKGDQGTSVKTLQEKLKALGYLTGAADGKYGAGTETAVKSFQKAAGLTETGTADPETLSAVYAA”, the “soluble fraction (log2)” value turned out to be 0.619. For the sequence “HMLYITEIQKKIMDAFLVVANESNSGTRITMNEIANKVRMTPQAIYRKHFKSVIEISDTIRD”, the “soluble fraction (log2)” value was -0.551. Under “HMMEERVIEFANVLRRNGVRVSLAENMDAFRALKSLGISDPLLFRHALRATLIKRGSDIQPFEELFDFFFL” stands -1.42; under “HMNAAFMKAERLLAILNILLTGKRVSSTELAKKLEVSVRTVYRDVEALSEAGFPVYATMGRDGGFGLIEGF”, -2.09; under “HMNADAIIGRMGKVTEPITPDGYGRVEIDGDSWKATAVGGVAIAEGTRVSVVSLDSIIITVKTV”, -1.44.

For “HMNADAIVGRTGVVTEAIAADGFGRVQIDGDSWKAKASGNNGIDVGAKVRVLRIDSIILTVEK”, the “soluble fraction (log2)” value was -1.07. The same measure for “HMNAELSTVQAAEVLNVSRPFLIKLLEDGAIPHRKVGKHRRVRMEDVMSYKAAIDTEREAVLDQLAA”: -0.13; for “HMNAISIDEAKKIALAKVSGASDQHIRIEADHDDGRLVYEGEIHYGRVEYEFEIDGSTGAIIEWDADRK”: -0.286. Under “HMNAKKSTLQLDLLKQLLEGNKISLKDFSLSNEISIRTAQRYIEDLLEIFEKNIVKEGDFYSFIS” stands -3.4; under “HMNAKNPRALAIQYVFKMQMGNFLHAKTDNQQQEQERIMTLFNEENKNTILPRWGKELLSYINRN”, -0.74. On to “HMNDENIIIEEIKYFIKSNQIKEQEKLPSERNLSELFTVSRFSLRKALRHLVDTGYLYVKDKSGYYYQGD”, for which the “soluble fraction (log2)” value is -2.55. Regarding “HMNDLIKMPYLVGQLYDDVASNQEYADFQFKITEGNDPDKQPGEIMKQDPAADIMVKKNAEVELLVNG”, the “soluble fraction (log2)” value was 0.374. Take “HMNDLKEDTITVQSVEYIDSDDGTMVYIKDTNHQVYKQAFKEDESLIRISAGDVLHVKYQPMDNEIHLL”: the “soluble fraction (log2)” value was -0.341. In the case of “HMNDMPELLSIKEASQWATEYLNKNVTTSNIAYLIQYGRIRKIGNNGSTQVLKDDLVKYYKDQK”, the “soluble fraction (log2)” value was -0.11.

“HMNDMWADITINANGKATLVVHTHEIKYLGLTGHLGKMEINGTAKEPVKDSSGDVVDYYFTFTDLDASMF”: the “soluble fraction (log2)” value came to 0.328. “HMNDNFTPDDLNRLARIKDLPQAKKYALELISNKSAKPMKPEKVRWFANQLQKKKSVMDITKMMYDLLLA”: the “soluble fraction (log2)” value is -0.423. Turning to “HMNDNTAINEFKKMVFTRMVHLQIDNAELSKLSGVTNSKILALKYGNSNTLKLGDIVKVAKTLNINLNDL”, the “soluble fraction (log2)” value was -2.86.

With “HMNDPFVILGVSKDASQSEILEAYKQKRAYYQERVFDEGDEGAQAARMLTQLDDAYQQAMELSHES”, the “soluble fraction (log2)” value was 0.183.

Turning to “HMNDPIESLTPREREVLTLMAEGRTNAAIAAQLVVTEGAVEKHTQHIFAKLGLLPDSAVHRRVKAVLALLS”, the “soluble fraction (log2)” value was -2.35. As for “HMNDPNAPITENQLKAIHVLLDKLKVDDNLKHAYIADVLQLDNEPETLKTLTKAQGSMAIERMQLLKDN”, the “soluble fraction (log2)” value was 0.736. Consider “HMNDQLIYSDFIRQVQDGQITEVTISGLNIAGTRSDGSVFNTLRPYIEDPKLIDDLLSHNVRIQGAE”, for which the “soluble fraction (log2)” value was determined as 0.168. Consider “HMNDRERIGKRIAQLRMEAGISQYKLAELTGLAPGNIARIETGKYSTGIDILSKIGDALGYQLDFI”, for which the “soluble fraction (log2)” value is -2.14.

“HMNDRLAGMEGQRGEAATNFDQGEGKVKVGDTVWLAKQSDSTVIVEGDQIVVTGSENGLLKVRL”: the “soluble fraction (log2)” value was -0.25. With “HMNDTLGVNIKRLRKEKGMTQDEVAKAVYTTRYNILRYESGKMTPSSEVIERLEKALGVPTGSLAQ”, the “soluble fraction (log2)” value is -0.348. “HMNDTSLIIDNLMLKLGNNIKNFSEIYSLLRKNLAEYGEEFIKSKVDYVLKNFNDNIEENLKKLLTE”: the “soluble fraction (log2)” value is -0.394.
